Measured values: ChEMBL document CHEMBL1135258, “Substrate spectrum of tyrocidine thioesterase probed with randomized peptide N-acetylcysteamine thioesters” (Bioorg Med Chem Lett, 2002)
“And” between values parts separate entries of the source, which are not always exact repeats. Identical values can stand only once.

Experiments:
Details in all cases: Brevibacillus brevis
[1] = substrate: CC(=O)NCCSC(=O)[C@H](CC(C)C)NC(=O)[C@H](CCCN)NC(=O)[C@@H](NC(=O)[C@H](Cc1ccc(O)cc1)NC(=O)[C@@H](NC(=O)[C@H](CC(N)=O)NC(=O)[C@@H](Cc1ccccc1)NC(=O)[C@H](Cc1ccccc1)NC(=O)[C@@H]1CCCN1C(=O)[C@H](N)Cc1ccccc1)C(C)C)C(C)C; test: (§1) Apparent kinetic constant (Km) determined for tyrocidine thioesterase amplified from Bacillus brevis (ATCC8185)
[2] = substrate: CC(=O)NCCSC(=O)[C@H](CC(C)C)NC(=O)[C@H](CCCN)NC(=O)[C@@H](NC(=O)[C@H](Cc1ccc(O)cc1)NC(=O)[C@H](CCC(N)=O)NC(=O)[C@H](CC(N)=O)NC(=O)[C@H](CO)NC(=O)[C@H](Cc1ccccc1)NC(=O)[C@@H]1CCCN1C(=O)[C@H](N)Cc1ccccc1)C(C)C; test: as §1
[3] = substrate: CC(=O)NCCSC(=O)[C@H](CC(C)C)NC(=O)[C@H](CCCN)NC(=O)[C@@H](NC(=O)[C@H](Cc1ccc(O)cc1)NC(=O)[C@H](CCC(N)=O)NC(=O)[C@H](CC(C)C)NC(=O)[C@@H](Cc1ccccc1)NC(=O)[C@H](Cc1ccccc1)NC(=O)[C@@H]1CCCN1C(=O)[C@H](N)Cc1ccccc1)C(C)C; test: as §1
[4] = substrate: CC[C@@H](C)[C@H](NC(=O)[C@H](CC(N)=O)NC(=O)[C@@H](Cc1ccccc1)NC(=O)[C@H](Cc1ccccc1)NC(=O)[C@@H]1CCCN1C(=O)[C@H](N)Cc1ccccc1)C(=O)N[C@@H](Cc1ccc(O)cc1)C(=O)N[C@H](C(=O)N[C@@H](CCCN)C(=O)N[C@@H](CC(C)C)C(=O)SCCNC(C)=O)C(C)C; test: as §1
[5] = substrate: CC(=O)NCCSC(=O)[C@H](CC(C)C)NC(=O)[C@H](CCCN)NC(=O)[C@@H](NC(=O)[C@H](Cc1ccc(O)cc1)NC(=O)[C@H](CCC(N)=O)NC(=O)[C@H](CC(N)=O)NC(=O)[C@@H](Cc1ccccc1)NC(=O)[C@H](Cc1ccccc1)NC(=O)[C@@H]1CCCN1C(=O)[C@H](N)Cc1ccccc1)C(C)C; test: as §1
[6] = substrate: CC(=O)NCCSC(=O)[C@H](CC(C)C)NC(=O)[C@H](CCCN)NC(=O)[C@@H](NC(=O)[C@H](Cc1ccc(O)cc1)NC(=O)[C@H](CCC(N)=O)NC(=O)[C@H](CC(N)=O)NC(=O)[C@@H](NC(=O)[C@H](Cc1ccccc1)NC(=O)[C@@H]1CCCN1C(=O)[C@H](N)Cc1ccccc1)C(C)C)C(C)C; test: as §1
[7] = substrate: CC(=O)NCCSC(=O)[C@H](CC(C)C)NC(=O)[C@H](CCCN)NC(=O)[C@@H](NC(=O)[C@H](Cc1ccc(O)cc1)NC(=O)[C@H](CCC(N)=O)NC(=O)[C@H](CC(N)=O)NC(=O)[C@H](CC(C)C)NC(=O)[C@H](Cc1ccccc1)NC(=O)[C@@H]1CCCN1C(=O)[C@H](N)Cc1ccccc1)C(C)C; test: as §1
[8] = substrate: CC(=O)NCCSC(=O)[C@H](CC(C)C)NC(=O)[C@H](CCCN)NC(=O)[C@@H](NC(=O)[C@H](Cc1ccc(O)cc1)NC(=O)[C@H](CCC(N)=O)NC(=O)[C@H](CC(N)=O)NC(=O)[C@H](Cc1ccccc1)NC(=O)[C@H](Cc1ccccc1)NC(=O)[C@@H]1CCCN1C(=O)[C@H](N)Cc1ccccc1)C(C)C; test: as §1
[9] = substrate: CC(=O)NCCSC(=O)[C@H](CC(C)C)NC(=O)[C@H](CCCN)NC(=O)[C@@H](NC(=O)[C@H](Cc1ccc(O)cc1)NC(=O)[C@H](CCC(N)=O)NC(=O)[C@H](CC(N)=O)NC(=O)[C@H](CC(=O)O)NC(=O)[C@H](Cc1ccccc1)NC(=O)[C@@H]1CCCN1C(=O)[C@H](N)Cc1ccccc1)C(C)C; test: as §1
[10] = substrate: CC(=O)NCCSC(=O)[C@H](CC(C)C)NC(=O)[C@H](CCCN)NC(=O)[C@@H](NC(=O)[C@H](Cc1ccc(O)cc1)NC(=O)[C@H](CCC(N)=O)NC(=O)[C@H](CC(N)=O)NC(=O)[C@H](CCCN=C(N)N)NC(=O)[C@H](Cc1ccccc1)NC(=O)[C@@H]1CCCN1C(=O)[C@H](N)Cc1ccccc1)C(C)C; test: as §1
[11] = substrate: CSCC[C@H](NC(=O)[C@H](Cc1ccccc1)NC(=O)[C@@H]1CCCN1C(=O)[C@H](N)Cc1ccccc1)C(=O)N[C@@H](CC(N)=O)C(=O)N[C@@H](CCC(N)=O)C(=O)N[C@@H](Cc1ccc(O)cc1)C(=O)N[C@H](C(=O)N[C@@H](CCCN)C(=O)N[C@@H](CC(C)C)C(=O)SCCNC(C)=O)C(C)C; test: as §1
[12] = substrate: CC(=O)NCCSC(=O)[C@H](CC(C)C)NC(=O)[C@H](CCCN)NC(=O)[C@@H](NC(=O)[C@H](Cc1ccc(O)cc1)NC(=O)[C@H](CC(C)C)NC(=O)[C@H](CC(N)=O)NC(=O)[C@@H](Cc1ccccc1)NC(=O)[C@H](Cc1ccccc1)NC(=O)[C@@H]1CCCN1C(=O)[C@H](N)Cc1ccccc1)C(C)C; test: as §1
[13] = substrate: CC(=O)NCCSC(=O)[C@H](CC(C)C)NC(=O)[C@H](CCCN)NC(=O)[C@@H](NC(=O)[C@H](Cc1ccc(O)cc1)NC(=O)[C@H](CCC(N)=O)NC(=O)[C@H](CC(N)=O)NC(=O)[C@H](CCC(=O)O)NC(=O)[C@H](Cc1ccccc1)NC(=O)[C@@H]1CCCN1C(=O)[C@H](N)Cc1ccccc1)C(C)C; test: as §1
[14] = substrate: CC(=O)NCCSC(=O)[C@H](CC(C)C)NC(=O)[C@H](CCCN)NC(=O)[C@@H](NC(=O)[C@H](Cc1ccc(O)cc1)NC(=O)[C@H](CCC(N)=O)NC(=O)[C@@H](NC(=O)[C@@H](Cc1ccccc1)NC(=O)[C@H](Cc1ccccc1)NC(=O)[C@@H]1CCCN1C(=O)[C@H](N)Cc1ccccc1)C(C)C)C(C)C; test: as §1
[15] = substrate: CC(=O)NCCSC(=O)[C@H](CC(C)C)NC(=O)[C@H](CCCN)NC(=O)[C@@H](NC(=O)[C@H](Cc1ccc(O)cc1)NC(=O)[C@H](CCC(N)=O)NC(=O)[C@H](CC(N)=O)NC(=O)[C@@H]1CCCN1C(=O)[C@H](Cc1ccccc1)NC(=O)[C@@H]1CCCN1C(=O)[C@H](N)Cc1ccccc1)C(C)C; test: as §1

B1: Thioesterase GrsT homolog tycF (Brevibacillus brevis), O30412 (protein)
chain: MKLFCFPYAGGLPGIYYSWKSRLPPTFLEIDAFEVRPHIPQPNRDVFLPTSFYELLEDVCDRITPALTETPFAFFGHSMGGLVAFELTRKLMQKGAPLPQHLFLSASRAPHAYGKLAKTYNLPHDEFVEALRKLGGTPDDVLENQELLELFLPILRADFQAVQTYEMNPDLPRQVPVNMTVLYGTEDTIALEDIWAWRDYCQGACQFFPVSGGHFFIHHQTSPILEIIQNVLKEEKTVAIHSSF
- Km [1]: 54 µM
- Km [2]: 14 µM
- Km [3]: 42 µM
- Km [4]: 82 µM
- Km [5]: 13 µM and 9.2 µM
- Km [6]: 145 µM
- Km [7]: 29 µM
- Km [8]: 4.8 µM
- Km [9]: 238 µM
- Km [10]: 24 µM
- Km [11]: 20 µM
- Km [12]: 135 µM
- Km [13]: 12 µM
- Km [14]: 25 µM
- Km [15]: 132 µM
